Laboratory results taken from publication PMC3981948 (Mucosal immunology, 2013).

Legend:
[1] = molecular target: T1, purified wild type CEACAM5 (human, UniProt P06731-1 35-685); assay: SPR
T1 sequence (looked up): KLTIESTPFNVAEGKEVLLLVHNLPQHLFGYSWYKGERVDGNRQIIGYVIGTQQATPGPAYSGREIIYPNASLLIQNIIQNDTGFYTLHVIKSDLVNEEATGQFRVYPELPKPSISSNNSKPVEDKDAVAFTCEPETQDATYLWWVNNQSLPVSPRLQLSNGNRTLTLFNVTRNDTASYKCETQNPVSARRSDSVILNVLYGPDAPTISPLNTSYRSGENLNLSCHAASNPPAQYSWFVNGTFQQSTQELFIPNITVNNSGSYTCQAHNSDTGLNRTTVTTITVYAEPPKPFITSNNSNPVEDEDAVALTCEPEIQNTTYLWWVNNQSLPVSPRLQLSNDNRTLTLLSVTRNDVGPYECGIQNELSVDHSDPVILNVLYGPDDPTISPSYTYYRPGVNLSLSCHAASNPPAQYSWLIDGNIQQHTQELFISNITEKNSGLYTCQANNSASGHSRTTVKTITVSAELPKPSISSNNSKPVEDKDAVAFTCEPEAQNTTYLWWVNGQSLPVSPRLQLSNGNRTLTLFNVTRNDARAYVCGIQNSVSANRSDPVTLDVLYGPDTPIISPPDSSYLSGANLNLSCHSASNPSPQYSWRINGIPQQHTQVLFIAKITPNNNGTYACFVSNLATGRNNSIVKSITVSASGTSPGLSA

[2] = molecular target: T2, purified CEACAM5 mutant N70,81A (human, UniProt P06731-1 35-685, N70,81A | N70,81A); assay: SPR
T2 sequence (looked up): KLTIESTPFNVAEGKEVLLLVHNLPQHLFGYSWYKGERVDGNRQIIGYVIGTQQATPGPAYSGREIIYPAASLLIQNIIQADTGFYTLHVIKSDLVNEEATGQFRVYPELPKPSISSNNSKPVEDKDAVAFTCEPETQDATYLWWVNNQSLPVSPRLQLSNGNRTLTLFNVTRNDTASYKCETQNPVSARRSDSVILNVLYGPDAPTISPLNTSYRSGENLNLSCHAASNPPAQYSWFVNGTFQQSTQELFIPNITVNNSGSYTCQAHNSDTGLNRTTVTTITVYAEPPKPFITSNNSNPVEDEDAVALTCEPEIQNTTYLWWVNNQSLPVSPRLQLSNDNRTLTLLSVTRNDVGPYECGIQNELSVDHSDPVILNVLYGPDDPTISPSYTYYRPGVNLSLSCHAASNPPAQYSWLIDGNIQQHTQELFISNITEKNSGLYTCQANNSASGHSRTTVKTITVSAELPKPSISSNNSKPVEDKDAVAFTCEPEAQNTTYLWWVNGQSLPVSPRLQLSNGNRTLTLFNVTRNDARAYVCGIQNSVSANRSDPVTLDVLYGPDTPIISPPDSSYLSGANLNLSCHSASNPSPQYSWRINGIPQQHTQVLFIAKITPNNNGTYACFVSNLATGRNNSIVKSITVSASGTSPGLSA

- Kd [1]: 0.022 µM
- koff [1]: 0.00056 s⁻¹
- kon [1]: 26000 M⁻¹ s⁻¹
- Kd [2]: 16 µM
- koff [2]: 0.0047 s⁻¹
- kon [2]: 290 M⁻¹ s⁻¹
B1: purified extracellular domain of CD8α (domain or fragment)
chain: not shown
